Results from the supplement of paper PMC9170038.

System: MS2 coat protein
Test: apparent KD of MS2 coat protein; designed switch direction (-1 OFF switch, 1 ON switch): -1; higher = weaker reporter binding
Summary of the method: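 Transcription of designed RNA switches on Illumina chips was done by stalled E. coli RNA polymerase. SNAP-549-labelled MS2 coat protein was then titrated in doubling steps from 0.7 or 1.5 nM to 3 µM, with steps of 0.8–1.5 h at the lowest and 10–20 min at the highest concentration. The per-design median over clusters of curve-fitted normalised fluorescence is reported as apparent KD.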

[1] = Eterna round: R95, input ligand: FMN 200 uM
[2] = Eterna round: R95, input ligand: microRNA oligo, concentration not stated
[3] = Eterna round: R95, input ligand: none
[4] = input ligand: microRNA oligo, concentration not stated

Sequence	apparent KD of MS2 coat protein [1] [µM]	apparent KD of MS2 coat protein [2] [µM]	apparent KD of MS2 coat protein [3] [µM]	apparent KD of MS2 coat protein (input ligand: FMN 200 uM) [µM]	apparent KD of MS2 coat protein [4] [µM]	apparent KD of MS2 coat protein (input ligand: none) [µM]
GCUUGGCGAGGAUAUACAUGAGGAUCACCCAUGUGAGAGAAAGAAGUGAGGAAGAAAAGUAGAAGGCGCUGAGG [Mat - Exclusion 3 - Mod of Salish D60] (puzzle: Exclusion 3)	0.165	0.0505	0.0754			
UAUUAGUGAGGAUAUGAGUCGUAGAACAAUAGUACUACGUCUCAGAAGGUACAUGAGGAUCACCCAUGUUCCUC [Fiskers Ex 4 Super Stable 44 mod 32] (puzzle: Exclusion 4)		0.0189				
UUUAAGGUAAUUAAGAUCACAUGAGGAUCACCCAUGUAUAUAUAGGAUAUCAGCUCGUUUAGAGCUGAGAAGGAUAUAUACAUA [ExNG3/6-C2] (Eterna round: R96, puzzle: Exclusion NG 3)				0.0216	0.178	0.136
CUUAGCCUAAAAUCACGCAAGCUUUUUGCUUGUCUAAAGACAUGAGGAUCACCCAUGUCCGGGCUGAACUUAUGGAA [Atqusoen] (puzzle: Sensor v3, turn-off variant 2)	0.0177	0.0181	0.016			
GUUGCGUUUGUGAGGAUAUGCUGUUCCUUGGUUCGGCAGAAGGCACAUGAGGAUCACCCAUGUGGUGUCGUUCC [salish99_Bmod_ex4_053] (puzzle: Brourd's mod of Exclusion 4)		0.0146				
GGGAGGGAUACAGGAUAUAUGACAUGAGGAUACAUGAGACAUACAAACAUGAGGAUCACCCAUGUAUAGAAGGGUAAGGGAGGG [Another guess] (Eterna round: R96, puzzle: Exclusion NG 2)					0.126	
CGGAUGUGAGGAUAUACAUGAGGAUCACCCAUGUGUGCCAGCUAGAUGACUGGCACUUGUAGAAGGCACGUCUG [Mat - Exclusion 3 - Mod of JL D91] (Eterna round: R96, puzzle: Exclusion 3)				0.0255	0.0113	0.0161
AGAUCACAUGAGGAUCACCCAUGUGAGGAUAUGAUACUAUGUACUUCGGUACAUAGUAUCAGAAGGCAUGUGGA [Ex1-3: 75] (puzzle: Exclusion 1)		0.0537				
AAAAUGUAAGGAUAUAGCCGGAACAAAGGGUCAAUAACCGGCUAGAAGGUACAUGAGGAUCACCCAUGUAAGAA [Excls4-V] (puzzle: Exclusion 4)	0.0194	0.0133	0.0158			
AGUCUGCGAGGAUAUACAUGAGGAUCACCCAUGUGCGAGAAACUAGUGAGGUCGAUUGGUAGAAGGCGCGGACA [Mat - Exclusion 3 - Mod of JL D87] (puzzle: Exclusion 3)	0.0347	0.2	0.356			
GAGGAACAUGAGGAUCACCCAUGUAAGGAUAUGCAAAGCGAGGUAGUAGAAGGAGAAGGCAGAAGGUACACGGA [JR_Exclu1_Sub075] (puzzle: Exclusion 1)	0.0319	0.0296	0.0453			
AUAACUCUAGUCAGGAUAUGCGAGCAAGGAUUAGAGCAGAAGGGACAUGAGGAUCACCCAUGUGGUAGCUGGGU [Indiraa] (puzzle: Brourd's mod of Exclusion 4)	0.0336	0.0473	0.0775			
UGAAACCUAGGAUAUACAUGAGGAUCACCCAUGUAAUGUAGUAUAGUAUAUGUAAGAUGUAGAAGGAGGAAUGU [LRO-Excl05-27-Smart Aleck] (Eterna round: R97, puzzle: Exclusion 3)				0.0309		0.0349
UGUAUACGAGGAUAUACAUGAGGAUCACCCAUGUGGACGUUGGAGAACGGCCCUCGUAGUAGAAGGCGUAUGAG [Eternabot (L2) Solution 53] (Eterna round: R97, puzzle: Exclusion 3)				0.0513		0.0154
